No end group written: not given here.

The source of these data is patent US20240076315A1 (ALLIFE MEDICINE ZHUHAI, published 2024).

For the assay, the target named is T1, cell surface antigen PSMA on Lncap cell line with high PSMA expression (UniProt Q04609 1-750, limits assumed).
T1 construct: whole, on cells; Lncap is a prostate cancer cell line; also called Lncap cells
The assay can be described thus: immunofluorescence on Lncap cells (high PSMA expression), FITC marker. As for the experimental part: Immunofluorescence detection was performed on KHL peptides in Lncap cell lines with high PSMA expression and PC3 cell lines with low PSMA expression, using FITC as the fluorescent marker.

T1 sequence (Q04609 whole entry): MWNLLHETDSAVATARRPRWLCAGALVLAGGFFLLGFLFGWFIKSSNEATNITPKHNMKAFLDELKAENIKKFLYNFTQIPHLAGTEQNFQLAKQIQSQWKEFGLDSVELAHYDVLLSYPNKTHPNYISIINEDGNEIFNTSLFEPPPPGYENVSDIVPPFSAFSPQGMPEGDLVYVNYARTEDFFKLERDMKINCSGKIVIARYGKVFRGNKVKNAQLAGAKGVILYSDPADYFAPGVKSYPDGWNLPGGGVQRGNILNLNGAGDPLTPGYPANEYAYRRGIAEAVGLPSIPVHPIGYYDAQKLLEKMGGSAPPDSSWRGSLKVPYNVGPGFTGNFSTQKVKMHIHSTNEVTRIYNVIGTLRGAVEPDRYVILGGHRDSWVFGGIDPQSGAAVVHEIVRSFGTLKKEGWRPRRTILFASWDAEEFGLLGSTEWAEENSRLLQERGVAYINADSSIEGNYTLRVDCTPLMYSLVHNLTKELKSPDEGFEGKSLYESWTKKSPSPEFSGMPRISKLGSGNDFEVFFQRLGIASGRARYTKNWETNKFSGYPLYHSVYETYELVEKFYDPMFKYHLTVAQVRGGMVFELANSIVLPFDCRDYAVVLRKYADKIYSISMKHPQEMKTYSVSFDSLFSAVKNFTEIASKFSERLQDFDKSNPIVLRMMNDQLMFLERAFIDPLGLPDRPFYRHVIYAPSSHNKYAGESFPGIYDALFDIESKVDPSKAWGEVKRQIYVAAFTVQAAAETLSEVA

Regarding KHLHYHSSVRYG (also: FITC label, attachment site not given here, also called KHL peptide conjugate) [KHL peptide with FITC as the fluorescent marker], the binding result is given as “binds”.
